# In patent US20210340217A1, “NOVEL PEPTIDES AND COMBINATION OF PEPTIDES FOR USE IN IMMUNOTHERAPY AGAINST OVARIAN CANCER AND OTHER CANCERS” (Immatics Biotechnologies GmbH, priority 2017, published 2021):
# Target: HLA-B*07:02 (Homo sapiens, UniProt P01889)
# Experiment: MHC binding assay (UV-ligand exchange, beta2m ELISA)
# Settings: peptide exchange yield
# Source text: Candidate peptides for T cell based therapies according to the present invention were further tested for their MHC binding capacity (affinity). The individual peptide-MHC complexes were produced by UV-ligand exchange, where a UV-sensitive peptide is cleaved upon UV-irradiation, and exchanged with the peptide of interest as analyzed. Only peptide candidates that can effectively bind and stabilize the peptide-receptive MHC molecules prevent dissociation of the MHC complexes. To determine the yield of the exchange reaction, an ELISA was performed based on the detection of the light chain (β2m) of stabilized MHC complexes. The assay was performed as generally described in Rodenko et al. (Rodenko et al., 2006).
# 96 well MAXISorp plates (NUNC) were coated over night with 2 ug/ml streptavidin in PBS at room temperature, washed 4× and blocked for 1 h at 37° C. in 2% BSA containing blocking buffer. Refolded HLA-A*02:01/MLA-001 monomers served as standards, covering the range of 15-500 ng/ml. Peptide-MHC monomers of the UV-exchange reaction were diluted 100-fold in blocking buffer. Samples were incubated for 1 h at 37° C., washed four times, incubated with 2 ug/ml HRP conjugated anti-β2m for 1h at 37° C., washed again and detected with TMB solution that is stopped with […]. Absorption was measured at 450 nm. Candidate peptides that show a high exchange yield (preferably higher than 50%, most preferred higher than 75%) are generally preferred for a generation and production of antibodies or fragments thereof, and/or T cell receptors or fragments thereof, as they show sufficient avidity to the MHC molecules and prevent dissociation of the MHC complexes.
row,Substance,Peptide exchange
1,307 (LPYGPGSEAAAF; listed as Homo sapiens) [compound 307],“+++” (>50 = +++)
2,368 (VPTPVFPTM; listed as Homo sapiens) [compound 368],“++” (>20% = ++)
3,138 (SPMATTSTL; listed as Homo sapiens) [compound 138],“+++” (>50 = +++)
4,336 (HPKTESATPAAY; listed as Homo sapiens) [compound 336],“++” (>20% = ++)
5,346 (LPWDTSTTLF; listed as Homo sapiens) [compound 346],“+++” (>50 = +++)
6,313 (KVKSDRSVF; listed as Homo sapiens) [compound 313],“+” (>10% = +)
7,135 (RVRSTISSL; listed as Homo sapiens) [compound 135],“+++” (>50 = +++)
8,121 (VPNQSSESL; listed as Homo sapiens) [compound 121],“+++” (>50 = +++)
9,300 (IPMAAVKQAL; listed as Homo sapiens) [compound 300],“+++” (>50 = +++)
10,349 (MPSLSEAMTSF; listed as Homo sapiens) [compound 349],“+++” (>50 = +++)
11,144 (SPSPVSSTL; listed as Homo sapiens) [compound 144],“+++” (>50 = +++)
12,309 (FPQSQYPQY; listed as Homo sapiens) [compound 309],“++++” (>75% = ++++)
13,356 (SPNEFYFTV; listed as Homo sapiens) [compound 356],“+++” (>50 = +++)
14,316 (EPKTATVL; listed as Homo sapiens) [compound 316],“++” (>20% = ++)
15,32 (SPNKGTLSV; listed as Homo sapiens) [compound 32],“+++” (>50 = +++)
16,385 (SPALHIGSV; listed as Homo sapiens) [compound 385],“+++” (>50 = +++)
17,142 (TPGLRETSI; listed as Homo sapiens) [compound 142],“++” (>20% = ++)
18,311 (RPLFYVVSL; listed as Homo sapiens) [compound 311],“++” (>20% = ++)
19,123 (KPSESIYSAL; listed as Homo sapiens) [compound 123],“+++” (>50 = +++)
20,359 (SPSTIKLTM; listed as Homo sapiens) [compound 359],“+++” (>50 = +++)
21,373 (RPRALRDLRIL; listed as Homo sapiens) [compound 373],“+++” (>50 = +++)
22,122 (YPGFPQSQY; listed as Homo sapiens) [compound 122],“++” (>20% = ++)
23,383 (TPTKETVSL; listed as Homo sapiens) [compound 383],“+++” (>50 = +++)
24,360 (SPSVSSNTY; listed as Homo sapiens) [compound 360],“++” (>20% = ++)
25,36 (APAAWLRSA; listed as Homo sapiens) [compound 36],“++” (>20% = ++)

row,Substance,Peptide exchange
1,323 (RPMPNLRSV; listed as Homo sapiens) [compound 323],“+++” (>50 = +++)
2,357 (SPSPVPTTL; listed as Homo sapiens) [compound 357],“+++” (>50 = +++)
3,343 (LPSVSGVKTTF; listed as Homo sapiens) [compound 343],“++” (>20% = ++)
4,299 (HPGSSALHY; listed as Homo sapiens) [compound 299],“++” (>20% = ++)
5,317 (FPFQPGSV; listed as Homo sapiens) [compound 317],“+++” (>50 = +++)
6,370 (PGGTRQSL; listed as Homo sapiens) [compound 370],“+” (>10% = +)
7,303 (LPMWKVTAF; listed as Homo sapiens) [compound 303],“+++” (>50 = +++)
8,295 (YPLRGSSIFGL; listed as Homo sapiens) [compound 295],“+++” (>50 = +++)
9,324 (VPYRVVGL; listed as Homo sapiens) [compound 324],“++” (>20% = ++)
10,306 (APVIFSHSA; listed as Homo sapiens) [compound 306],“++” (>20% = ++)
11,125 (VPVYILLDEM; listed as Homo sapiens) [compound 125],“++” (>20% = ++)
12,297 (TVREASGLL; listed as Homo sapiens) [compound 297],“+++” (>50 = +++)
13,369 (FPHSEMTTV; listed as Homo sapiens) [compound 369],“+++” (>50 = +++)
14,341 (LPLDTSTTL; listed as Homo sapiens) [compound 341],“+++” (>50 = +++)
15,374 (NPIGDTGVKF; listed as Homo sapiens) [compound 374],“+++” (>50 = +++)
16,308 (YPEGAAYEF; listed as Homo sapiens) [compound 308],“++” (>20% = ++)
17,372 (IPRNPPPTLL; listed as Homo sapiens) [compound 372],“+++” (>50 = +++)
18,130 (FPRLVGPDF; listed as Homo sapiens) [compound 130],“+++” (>50 = +++)
19,38 (SPHPVTALLTL; listed as Homo sapiens) [compound 38],“+++” (>50 = +++)
20,389 (SPGAQRTFFQL; listed as Homo sapiens) [compound 389],“+++” (>50 = +++)
21,128 (YPRTITPGM; listed as Homo sapiens) [compound 128],“+++” (>50 = +++)
22,377 (RPRSPAGQVAAA; listed as Homo sapiens) [compound 377],“+++” (>50 = +++)
23,340 (LPEISTRTM; listed as Homo sapiens) [compound 340],“++” (>20% = ++)
24,337 (HPVETSSAL; listed as Homo sapiens) [compound 337],“+++” (>50 = +++)
25,139 (SPQSMSNTL; listed as Homo sapiens) [compound 139],“+++” (>50 = +++)

row,Substance,Peptide exchange
1,120 (RPAMNYDKL; listed as Homo sapiens) [compound 120],“++” (>20% = ++)
2,329 (FPAMTESGGMIL; listed as Homo sapiens) [compound 329],“+++” (>50 = +++)
3,351 (NVLTSTPAF; listed as Homo sapiens) [compound 351],“++” (>20% = ++)
4,34 (LPRGPLASLL; listed as Homo sapiens) [compound 34],“+++” (>50 = +++)
5,371 (LYVDGFTHW; listed as Homo sapiens) [compound 371],“++” (>20% = ++)
6,37 (RPLFQKSSM; listed as Homo sapiens) [compound 37],“+++” (>50 = +++)
7,149 (GPREALSRL; listed as Homo sapiens) [compound 149],“+++” (>50 = +++)
8,328 (EPVTSSLPNF; listed as Homo sapiens) [compound 328],“++” (>20% = ++)
9,140 (SPRTEASSAVL; listed as Homo sapiens) [compound 140],“+++” (>50 = +++)
10,146 (IPRPEVQAL; listed as Homo sapiens) [compound 146],“+++” (>50 = +++)
11,293 (VPDSGATATAY; listed as Homo sapiens) [compound 293],“++” (>20% = ++)
12,321 (SPMDTFLLI; listed as Homo sapiens) [compound 321],“++” (>20% = ++)
13,355 (SPLVTSHIM; listed as Homo sapiens) [compound 355],“+++” (>50 = +++)
14,386 (FPFNPLDF; listed as Homo sapiens) [compound 386],“++” (>20% = ++)
15,147 (APRWFPQPTVV; listed as Homo sapiens) [compound 147],“+++” (>50 = +++)
16,339 (LPAGTTGSLVF; listed as Homo sapiens) [compound 339],“+++” (>50 = +++)
17,314 (VPDQPHPEI; listed as Homo sapiens) [compound 314],“+++” (>50 = +++)
18,362 (SPVPVTSLF; listed as Homo sapiens) [compound 362],“+++” (>50 = +++)
19,35 (FPDNQRPAL; listed as Homo sapiens) [compound 35],“+++” (>50 = +++)
20,296 (YPLRGSSI; listed as Homo sapiens) [compound 296],“++” (>20% = ++)
21,126 (KPGPEDKL; listed as Homo sapiens) [compound 126],“++” (>20% = ++)
22,332 (FPHSEMTTL; listed as Homo sapiens) [compound 332],“+++” (>50 = +++)
23,334 (FPYSEVTTL; listed as Homo sapiens) [compound 334],“+++” (>50 = +++)
